The results in this text go back to patent US20210292393A1 (published 2021).

Positions count from the first letter of the chain named.

One test addresses SARS-CoV-2 spike protein (SARS-CoV-2, UniProt P0DTC2 14-1208).
The target of test [1] is SARS-CoV-2 spike (S) protein (SARS-CoV-2, UniProt P0DTC2 14-1208).

B1: antibody 394 (antibody, V domains shown)
VH: QVQLVQSGAEVKKPGASVKVSCKASGYTFTGYYMHWVRQAPGQGLEWMGWINPNNGGTNSAQKFQGRVTMTRDTSISTAYMELNRLRSDDTAVYYCARDITTTAGTDYYYGMDVWGQGTTVTVSS
VL: SYELTQPPSVSVSPGQTARITCSGDALPKQYAYWYQQKPGQAPVLVICKDSERPSGIPERFSGSSSGTTVTLTISGVQAEDEADYYCQSADSSGTYIVFGTGTKVTVL
Turning to B1, in the test with SARS-CoV-2 spike protein, the Kd (in general, the equilibrium constant for the complex coming apart) came out at 1.32 nM; the dissociation rate constant (koff) – broadly, the first-order rate constant of dissociation – was 3.52e-05 s⁻¹; the kon (in general, the rate constant with which the complex forms) worked out at 26600 M⁻¹ s⁻¹.

B2: antibody 397 (antibody, V domains shown)
VH: QVQLVESGGGVVQPGRSLRLSCAASGFTFSSYGMHWVRQAPGKGLESVAVISYDGSNKYYADSVKGRFTISRDNSKNTLYLQMNSLRAEDTAVYYCAKEGQWELQGNAFDIWGQGTMVTVSS
VL: B1 VL with C48Y, A90G, I97R, T101G, V105L
In the test with SARS-CoV-2 spike protein, B2 displayed a Kd of no more than 0.0169 nM, a koff of no more than 1e-05 s⁻¹ and a kon of 591000 M⁻¹ s⁻¹.

B3: antibody 441 (antibody, V domains shown)
VH: EVQLVESGGGVVRPGGSLRLSCAASGFTFGDYGMSWVRQAPGKGLEWVSGINWNGGSTGYADSVKGRFTISRDNAKNSLYLQMNSLRAEDTALYYCASDLVRGVIGFDYWGQGTLVTVSS
VL: B1 VL with C48Y, T95I, Y96T, I97G, T101G, V105L
In the test with SARS-CoV-2 spike protein, B3 had a Kd of 3.46 nM, a koff of 0.000318 s⁻¹ and a kon of 91900 M⁻¹ s⁻¹.

B4: antibody 440 (antibody, V domains shown)
VH: EVQLLESGGGLVQPGGSLRLSCAASGFTFSSYAMSWVRQAPGKGLEWVSAISGSGVNTYHADSVKGRFTISRDNSRNTLYLQMSSLTAEDTAAYYCAKDFEAASGAYYYYGMDVWGQGTTVTVSS
VL: B1 VL with K29D, L45V, C48Y, S51R, S65N, G94A, I97V, T101G, V105L
As to B4, in the test with SARS-CoV-2 spike protein, the Kd came out at 7.93 nM, the koff stood at 0.000291 s⁻¹ and the kon worked out at 36700 M⁻¹ s⁻¹.

B5: antibody 433 (antibody, V domains shown)
VH: QVQLVESGGGVVQPGRSLRLSCAASGFTFSSYAMHWVRQAPGKGLEWVAVISYDGSNKYYADSVKGRFTISRDNSKNTLYLQMNSLRAEDTAVYYCAKDYEVVIAIGGPGAFDYWGQGTLVTVSS
VL: SYVLTQPPSVSVAPGKTARITCGGNNIGSKSVHWYQQKPGQAPVLVIYYDSDRPSGIPERFSGSNSGNTATLTISRVEAGDEADYYCQVWDSSSDHVVFGGGTKLTVL
Take B5: in the test with SARS-CoV-2 spike protein, binding was characterised by a dissociation constant (Kd) of 2.8 nM, the koff stood at 0.000349 s⁻¹ and the kon worked out at 125000 M⁻¹ s⁻¹.

B6: antibody 448 (antibody, V domains shown)
VH: QVQLVQSGAEVKKPGASVKVSCKASGYTFTSYGISWVRQAPGQGLEWMGWISAYNGNTNYAQKLQGRVTMTTDTSTSTAYMELRSLRSDDTAVYYCAIELLEGFYYYYGMDVWGQGTTVTVSS
VL: SYELTQPPSVSVSPGQTARITCSGDALPKQYAYWYQQKPGQAPVLVIYKDSERPSGIPERFSGSSSGTTVTLTISGVQAEDEADYYCQSADSSGTYPYVVFGGGTKLTVL
For B6, in the test with SARS-CoV-2 spike protein, the Kd was determined as 37.5 nM, the koff came to 0.000692 s⁻¹ and the kon turned out to be 18500 M⁻¹ s⁻¹.

B7: antibody 359 (antibody, V domains shown)
VH: QVQLVESGGGVVQPGRSLRLSCAASGFTFSSYAMHWVRQAPGKGLEWVAVISYDGSNKYYADSVKGRFTISRDNSKNTLYLQMNSLRAEDTAVYYCAYSGNYWYFDLWGRGTLVTVSS
VL: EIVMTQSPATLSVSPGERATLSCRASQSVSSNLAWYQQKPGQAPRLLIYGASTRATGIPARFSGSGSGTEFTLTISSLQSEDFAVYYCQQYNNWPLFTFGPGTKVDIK
In test [1], B7 returned a Kd of 0.441 nM, a koff of 6.67e-05 s⁻¹ and a kon of 151000 M⁻¹ s⁻¹.

B8: antibody 393 (antibody, V domains shown)
VH: QVQLVESGGGVVQPGRSLRLSCAASGFTFSSYAMHWVRQAPGQGLEWVAVISYDGSNKYYADSVKGRFTISRDNSKNTLYLQMNSLRAEDTAVYYCARAGSGSRHYYGMDVWGQGTTVTVSS
VL: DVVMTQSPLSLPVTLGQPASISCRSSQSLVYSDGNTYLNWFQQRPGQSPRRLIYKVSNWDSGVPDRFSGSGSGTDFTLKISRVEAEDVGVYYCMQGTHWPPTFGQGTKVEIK
In the test with SARS-CoV-2 spike protein, B8 registered a Kd of 0.313 nM, a koff of 2.95e-05 s⁻¹ and an on-rate (kon) of 94100 M⁻¹ s⁻¹.

B9: antibody 402 (antibody, V domains shown)
VH: QVQLVQSGAEVKKPGASVKVSCKVSGYTLTELSMHWVRQAPGKGLEWMGGFDPEDVETIYAQKFQGRVTMTEDTSTDTAYMELSSLRSEDTAVYYCATGVAVVGTSHSYYYYYGMDVWGQGTTVTVSS
VL: DIQMTQSPSSLSASVGDRVTITCRASQGISNYLAWYQQKPGKVPKLLIYAASTLQSGVPSRFSGSGSGTDFTLTISSLQPEDVATYYCQKYNSAPFTFGPGTKVDIK
With B9, in the test with SARS-CoV-2 spike protein, binding was characterised by a dissociation constant (Kd) of 2.14 nM, the koff was 6.48e-05 s⁻¹ and the kon stood at 30400 M⁻¹ s⁻¹.

B10: antibody 415 (antibody, V domains shown)
VH: QVQLVESGGGVVQPGRSLRLSCAASGFTFSSYAMHWVRQAPGKGLEWVAVISYDGSNKYYADSVKGRFTISRDNSKNTLYLQMNSLRAEDTAVYYCAKTRGGSYFDAFDIWGQGTMVTVSS
VL: not shown
Turning to B10, in the test with SARS-CoV-2 spike protein, the Kd was no more than 0.0125 nM, the koff was no more than 1e-05 s⁻¹ and the kon is 802000 M⁻¹ s⁻¹.

B11: antibody 400 (antibody, V domains shown)
VH: QVQLVESGGGVVQPGRSLRLSCAASGFTFSSYGMHWVRQAPGKGLEWVAVISYDGSNKYYADSVKGRFTISRDNSKNTLYLQMNSLRAEDTAVYYCAKAIDILTGYGPGGMDVWGQGTTVTVSS
VL: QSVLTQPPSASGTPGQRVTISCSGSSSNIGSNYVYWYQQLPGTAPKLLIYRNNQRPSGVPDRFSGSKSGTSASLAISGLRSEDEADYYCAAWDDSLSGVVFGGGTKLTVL
In the test with SARS-CoV-2 spike protein, B11 came in with a Kd of 1.28 nM, a koff of 0.000624 s⁻¹ and a kon of 488000 M⁻¹ s⁻¹.

B12: antibody 449 (antibody, V domains shown)
VH: not shown
VL: QSALTQPASVSGSPGQSITISCTGTSSDVGGYNYVSWYQQHPGKAPKLMIYEVSNRPSGVSNRFSGSKSGNTASLTISGLQAEDEADYYCSSYTSSSTVVFGGGTKLTVL
In the test with SARS-CoV-2 spike protein, B12 yielded a Kd of 9.17 nM, a koff of 0.000526 s⁻¹ and a kon of 57400 M⁻¹ s⁻¹.

B13: antibody 391 (antibody, V domains shown)
VH: EVQLVESGGGLVQPGGSLRLSCAASGFTFSSYWMHWVRQAPGKGLVWVSRINSDGSSTSYADSVKGRFTISRDNAKNTLYLQMNSLRAEDTAVYYCALGPLDIVGSYYYYGMDVWGQGTTVTVSS
VL: NFMLTQPHSVSESPGKTVTISCTGSSGSIASNYVQWYQQRPGSAPTTVIYEDNQRPSGVPDRFSGSIDSSSNSASLTISGLKTEDEADYYCQSYDSSNQDVVFGGGTKLTVL
In the test with SARS-CoV-2 spike protein, B13 displayed a Kd of no more than 0.37 nM, a koff of no more than 1e-05 s⁻¹ and a kon of 27000 M⁻¹ s⁻¹.

B14: antibody 358 (antibody, V domains shown)
VH: QVQLVESGGGVVQPGRSLRLSCAASGFNLNSYAMHWVRQASGKGLEWVSLMSYDGSIKYYADSVKGRFTVSGDNSRNTLFLQMNSLRPDDSALYYCVRGGVSGPNSFDLWGQGTTVTVSS
VL: DVVMTQSPLSLPVTLGQPASISCRSSQSLVYSDGSTYVNWFQQRPGQSPRRLIYKVSNRDSGVPDRFSGSGSGTDFALKISRVEAEDVGVYYCMQGTHWPVTFGQGTKVEIK
As for B14, in test [1], the Kd worked out at 1.69 nM, the koff worked out at 0.000487 s⁻¹ and the kon came to 289000 M⁻¹ s⁻¹.

B15: antibody 381 (antibody, V domains shown)
VH: QVQLVESGGGVVQPGRSLRLSCAASGFTFSSYAMHWVRQAPGKGLEWVAVISYDGSNKYYADSVKGRFTISRDNSKNTLYLQMNSLRAEDTAVYYCARDRQYYDILTGYYLPTSEYYFDYWGQGTLVTVSS
VL: DIQMTQSPSSVSASVGDRVTITCRASQGISSWLAWYQQKPGKAPKLLIYAASSLQSGVPSRFSGSGSGTDFTLTISSLQPEDFATYYCQQANSFPPTFGGGTKVEIK
In test [1], B15 gave a Kd of 6.66 nM, a koff of 0.000207 s⁻¹ and a kon of 31100 M⁻¹ s⁻¹.

B16: antibody 399 (antibody, V domains shown)
VH: QVQLVQSGAEVKKPGASVKVSCKASGYTFTSYGISWVRQAPGQGLEWMGWISAYNGNTNYAQKLQGRVTMTTDTSTSTAYMELRSLRSDDTAVYYCARDSGYDWAGGHYYYYGMDVWGQGTTVTVSS
VL: QSALTQPASVSGSPGQSITISCTGTSSDVGGYNYVSWYQQHPGKAPKLMIYEVSNRPSGVSNRFSGSKSGNTASLTISGLQAEDEADYYCSSYTSSSTLVVFGGGTKLTVL
In the test with SARS-CoV-2 spike protein, B16 returned a Kd of no more than 0.315 nM, a koff of no more than 1e-05 s⁻¹ and a kon of 31700 M⁻¹ s⁻¹.

B17: antibody 357 (antibody, V domains shown)
VH: QVQLVQSGAEVKKPGSSVKVSCKASGGTFSSYAISWVRQAPGQGLEWMGRIIPILGIANYAQKFQGRVTITADKSTSTAYMELSSLRSEDTAVYYCARGPIAVAGIGPWFDPWGQGTLVTVSS
VL: QSVLTQPPSVSAAPGQKVTISCSGSSSNIGNNYVSWYQQLPGTAPKLLIYDNNKRPSGIPDRFSGSKSGTSATLGITGLQTGDEADYYCGTWDSSLSAVVFGGGTKLTVL
For the molecule B17, in test [1], the Kd was 0.837 nM, the koff turned out to be 6.53e-05 s⁻¹ and the kon amounted to 78000 M⁻¹ s⁻¹.

B18: antibody 410 (antibody, V domains shown)
VH: QVQLVQSGAEVKKPGASVKVSCKASGYTFTSYGISWVRQAPGQGLEWMGWISAYNGNTNYAQKLQGRVTMTTDTSTSTAYMELRSLRSDDTAVYYCARGRITIFGVEYYYGMDVWGQGTTVTVSS
VL: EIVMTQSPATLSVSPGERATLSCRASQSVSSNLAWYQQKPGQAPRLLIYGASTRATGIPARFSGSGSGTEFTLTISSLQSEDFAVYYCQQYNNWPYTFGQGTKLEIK
As for B18, in the test with SARS-CoV-2 spike protein, binding was characterised by a dissociation constant (Kd) of 2.05 nM, the koff was 0.000329 s⁻¹ and the kon was 161000 M⁻¹ s⁻¹.

B19: antibody 368 (antibody, V domains shown)
V domain 1: QITLKESGPTLVKPTETLTLTCAFSGFSLTKTGEAAGWIRQAPGRALEWVTVIFWDDDKRYSPSLQNRLTVTKDTSKNVVVLTMTNVDPVDTATYFCWAMGGPGKEFFGQGTRVAVSS
V domain 2: QSVLTQPPSVSGAPGQRVTVSCTGTSSSIGPYSDVHWYQHIPGKAPRLLIFGTSNRPSGVPARFSGSKSGSSASLVIAGLQAEDEADYYCQSYDSSLGEIYVFGTGTTVTVL
Consider B19, for which, in test [1], the Kd turned out to be 12.7 nM, the koff is 0.000486 s⁻¹ and the kon amounted to 38100 M⁻¹ s⁻¹.

B20: antibody 387 (antibody, V domains shown)
VH: QVQLVESGGGVVQPGRSLRLSCAASGFTFSSYGMHWVRQAPGKGLEWVAVISYDGSNKYYADSVKGRFTISRDNSKNTLYLQMNSLRAEDTAVYYCAKDDTKNYGDLDIDYWGQGTLVTVSS
VL: SYELTQPSSVSVSPGQTARITCSGDVLAKKYARWFQQKPGQAPVLVIYKDSERPSGIPERFSGSSSGTTVTLTISGAQVEDEADYYCYSAADNNLGVFGGGTKLTVL
In test [1], B20 came in with a Kd of 37.4 nM, a koff of 0.000808 s⁻¹ and a kon of 21600 M⁻¹ s⁻¹.

B21: antibody 360 (antibody, V domains shown)
VH: QVQLVESGGGVVQPGRSLRLSCAASGFTFSSYAMHWVRQAPGKGLEWVAVISYDGSNKYYADSVKGRFTISRDNSKNTLYLQMNSLRAEDTAVYYCAKGKNSGSYFFAFDIWGQGTMVTVSS
VL: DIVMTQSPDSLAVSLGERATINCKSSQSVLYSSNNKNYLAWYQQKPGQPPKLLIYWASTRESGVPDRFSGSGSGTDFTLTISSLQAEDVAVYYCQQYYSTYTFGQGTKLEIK
In test [1], B21 displayed a Kd of 1.4 nM, a koff of 0.000145 s⁻¹ and a kon of 104000 M⁻¹ s⁻¹.
